Reference: article PMC12078792

How the values were obtained:
[1] = molecular target: HIV-1 CA hexamer tubes, disulfide-stabilized CA hexamers (A14C/E45C) assembled into large molecular weight tubes; assay: co-sedimentation with CA hexamer tubes; details: read off a plot
[2] = molecular target: HIV-1 CA hexamer tubes, disulfide-stabilized CA hexamers (A14C/E45C) assembled into large molecular weight tubes (HIV-1)
[3] = molecular target: HIV-1 CA hexamer tubes, disulfide-stabilized CA hexamers (A14C/E45C) assembled into large molecular weight tubes; assay: co-sedimentation with CA hexamer tubes; details: parent: est. 81; read off a plot

Substance “TRIM-NUP153C-HA with CbM.1 replaced by CbM.2 (∆1::2) (from UniProt Q0PF16;P49790) F1417A” has a response (% Bound NUP153c) ([1]; parent: est. 55) of 36.
For “TRIM-NUP153C-HA with the mutation F1417A in CbM.1 (from UniProt Q0PF16 1-304; P49790 896-1475)”, the TRIM-NUP153c restriction assay: increase in HIV-GFP-positive cells [2] was 7 fold.
For “TRIM-NUP153C-HA, TRIM domain of rhesus TRIM5α (1-304) fused to the HA-tagged human NUP153 C-terminal domain (896-1475), wild type (from UniProt Q0PF16 1-304; P49790 896-1475)”, the TRIM-NUP153c restriction assay: HIV-GFP-transduced GFP-positive cells relative to empty vector control (% relative to empty vector control) [2] was 18.5.
With “TRIM-NUP153C-HA, TRIM domain of rhesus TRIM5α (1-304) fused to the HA-tagged human NUP153 C-terminal domain (896-1475), wild type (from UniProt Q0PF16;P49790) ∆1::2 (CbM.1 replaced by CbM.2)” the response (% Bound NUP153c) [3] was 55 and the response (% Bound NUP153c) ([1]; parent: est. 81) was 55.
“TRIM-NUP153C-HA, TRIM domain of rhesus TRIM5α (1-304) fused to the HA-tagged human NUP153 C-terminal domain (896-1475), wild type (from UniProt Q0PF16;P49790) ∆1::3 (CbM.1 replaced by CbM.3)” showed a response (% Bound NUP153c) [3] of 47.
For “TRIM-NUP153C-HA, TRIM domain of rhesus TRIM5α (1-304) fused to the HA-tagged human NUP153 C-terminal domain (896-1475), wild type (from UniProt Q0PF16;P49790) ∆1::4 (CbM.1 replaced by CbM.4)”, the response (% Bound NUP153c) [3] was 51.
Work on “TRIM-NUP153C-HA, TRIM domain of rhesus TRIM5α (1-304) fused to the HA-tagged human NUP153 C-terminal domain (896-1475), wild type (from UniProt Q0PF16;P49790) ∆2::1 + ∆1::2 (CbM.1 and CbM.2 swapped)” yielded a response (% Bound NUP153c) ([1]; parent: est. 81) of 97.
